Experimental data taken from PMC2788773 (Molecular cell, 2009).
Residue numbers refer to the chain shown, from its start.

Key:
Assay in all cases: pull-down
His6-S-Rad54-T132A = molecular target: T1, His6-S-Rad54-T132A (S. cerevisiae (budding yeast), UniProt P32863 1-898, T132A)
T1 sequence (looked up): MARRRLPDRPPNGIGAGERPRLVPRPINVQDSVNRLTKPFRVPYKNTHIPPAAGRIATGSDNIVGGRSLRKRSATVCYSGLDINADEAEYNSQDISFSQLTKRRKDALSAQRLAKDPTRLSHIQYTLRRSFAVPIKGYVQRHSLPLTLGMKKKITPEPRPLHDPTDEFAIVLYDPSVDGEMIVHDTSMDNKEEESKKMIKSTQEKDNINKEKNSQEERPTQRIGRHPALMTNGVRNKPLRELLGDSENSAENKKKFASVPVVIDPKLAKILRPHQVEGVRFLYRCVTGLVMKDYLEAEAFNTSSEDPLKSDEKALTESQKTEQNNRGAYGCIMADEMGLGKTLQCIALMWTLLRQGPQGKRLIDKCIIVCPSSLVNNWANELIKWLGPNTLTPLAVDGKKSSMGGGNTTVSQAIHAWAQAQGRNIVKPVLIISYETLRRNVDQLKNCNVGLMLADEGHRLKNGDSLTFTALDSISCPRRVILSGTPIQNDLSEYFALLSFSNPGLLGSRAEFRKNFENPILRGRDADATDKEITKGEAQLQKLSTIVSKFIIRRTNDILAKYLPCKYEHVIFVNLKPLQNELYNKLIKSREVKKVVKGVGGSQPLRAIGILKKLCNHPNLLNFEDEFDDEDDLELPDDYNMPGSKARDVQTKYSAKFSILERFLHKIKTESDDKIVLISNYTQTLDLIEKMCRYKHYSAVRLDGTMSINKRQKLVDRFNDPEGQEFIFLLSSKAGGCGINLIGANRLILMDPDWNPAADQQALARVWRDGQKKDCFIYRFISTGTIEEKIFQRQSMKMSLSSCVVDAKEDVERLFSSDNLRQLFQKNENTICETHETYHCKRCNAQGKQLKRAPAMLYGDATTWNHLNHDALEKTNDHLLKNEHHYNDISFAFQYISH

His6-S-Rad54-T132D = molecular target: T2, His6-S-Rad54-T132D (S. cerevisiae (budding yeast), UniProt P32863 1-898, T132D)
T2 sequence (looked up): T1 sequence (looked up) with A132D

His6-S-Rad54 = molecular target: T3, His6-S-Rad54 (S. cerevisiae (budding yeast), UniProt P32863 1-898)
T3 sequence (looked up): T1 sequence (looked up) with A132T

binding result (His6-S-Rad54-T132A): binds
fold reduction in Rad51 binding compared to Rad54 (His6-S-Rad54-T132D): 2 fold
binding result (His6-S-Rad54): binds
B1: Rad51 (natural protein, S. cerevisiae (budding yeast), UniProt P25454 1-400, looked up)
chain: MSQVQEQHISESQLQYGNGSLMSTVPADLSQSVVDGNGNGSSEDIEATNGSGDGGGLQEQAEAQGEMEDEAYDEAALGSFVPIEKLQVNGITMADVKKLRESGLHTAEAVAYAPRKDLLEIKGISEAKADKLLNEAARLVPMGFVTAADFHMRRSELICLTTGSKNLDTLLGGGVETGSITELFGEFRTGKSQLCHTLAVTCQIPLDIGGGEGKCLYIDTEGTFRPVRLVSIAQRFGLDPDDALNNVAYARAYNADHQLRLLDAAAQMMSESRFSLIVVDSVMALYRTDFSGRGELSARQMHLAKFMRALQRLADQFGVAVVVTNQVVAQVDGGMAFNPDPKKPIGGNIMAHSSTTRLGFKKGKGCQRLCKVVDSPCLPEAECVFAIYEDGVGDPREEDE
